Patent CN117603358A (INST MICROBIOLOGY CAS; 3SBIO GROUP; SHANXI ADVANCED …, dated 2024)

B1: L4.65单抗 (antibody, V domains shown)
VH: QITLKESGPTLVKPTQTLTLTCTFSGFSLSTSGVGVAWIRQPPGKALEWLALIYWDNDKRSSPSLNNRLTITKDTSKNQVVLTMTNMDPEDTATYYCAHFFSHYDSSNYYYGSWFDPWGQGTLVTVSS
VL: EIVLTQSPGTLSLSPGERATLSCRASQSFDSRYLGWYQQKSGQAPRLLIYGASSRATGIPDRFSGSGSGTDFTLTISRLEPEDFAVYYCQQFGDSPFTFGQGTKLEIKR
B2: CoV56单抗 (antibody, V domains shown)
VH: EVQLVESGGGVVQPGGSLRLSCAVSGFTFDDYAMHWVRQAPGKGLDWVSLISGDGSYTYYADSVKGRFTISRDSSKNSLYLQMNSLRTEDTALYYCAKAQTPTLWWLQDAFDIWGQGTMVTVSS
VL: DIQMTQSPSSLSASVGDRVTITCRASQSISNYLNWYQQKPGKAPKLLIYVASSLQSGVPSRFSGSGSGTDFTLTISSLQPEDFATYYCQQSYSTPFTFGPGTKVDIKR

Target: S蛋白, SARS-CoV-2原型毒株 (SARS-CoV-2 (prototype), UniProt P0DTC2 14-1273)
Test: cell-based or functional assay

Binder | 假病毒中和效果 IC50 [µg/mL]
B1 | 0.000709
B2 | 8.38
